According to patent US7728193B2, “Phytochrome-interacting protein and a use thereof” (Genomine Inc., priority 2004, dated 2010):

What was measured:
[1] = target: autophosphorylated oat Pfr phytochrome A (oat)
[2] = system: autophosphorylated oat phytochrome A; assay: Dephosphorylation of autophosphorylated phytochrome by PAPP5 in vitro; type: biochemical; details: 1 μg fusion protein, 30 minutes
Experimental: First, KP buffer (20 mM Tris-HCl pH7.5, 30 mM MgCl2, 1 mM EDTA, 1 mM EGTA, 0.1% β-mercaptoethanol, 0.1% ethanol) containing 1 μg of purified oat phytochrome A (provided from Kumho Life and Environmental Science Laboratory, Korea) was set on ice and irradiated with Rc light output of 50 μmolS^−1m^−2 at 664 nm for 5 minutes. Then, the reaction solution was allowed to react with [γ-^32P]ATP in dark conditions for 30 minutes (autophosphorylation of phytochrome A). Following addition of 1 μg of each of the fusion proteins GST-PAPP5, GST-TPR and GST-PP2Ac prepared in Examples <4-1> and <5-1>, the reaction continued for more 30 minutes, and then stopped by adding 12 μl of 5× Tris-glycine SDS sample buffer under dim green safe light.
Next, the present inventors investigated whether the phosphatase activity of PAPP5 depends on a change in the spectroscopic structure (photoconversion) of phytochrome molecules (Pr⇄Pfr). KP buffer solution containing phytochrome was set on ice and irradiated with a Rc light output of 50 μmolS^−1m^−2 at 664 nm (conversion of phytochrome into Pfr form) or a FRc light output of 50 μmolS^−1m^−2 at 748 nm (conversion of phytochrome into […]) for 5 minutes. Then, the autophosphylation/dephosphorylation test of phytochrome was performed in the same manner as described above.

[3] = target: T1, GST-PAPP5 (Arabidopsis thaliana, UniProt Q84XU2); assay: In vitro phosphatase assay of GST-PAPP5 with ρNPP as substrate: effect of arachidonic acid and okadaic acid; type: biochemical
T1 sequence (Q84XU2 1-484 isoform Q84XU2-2): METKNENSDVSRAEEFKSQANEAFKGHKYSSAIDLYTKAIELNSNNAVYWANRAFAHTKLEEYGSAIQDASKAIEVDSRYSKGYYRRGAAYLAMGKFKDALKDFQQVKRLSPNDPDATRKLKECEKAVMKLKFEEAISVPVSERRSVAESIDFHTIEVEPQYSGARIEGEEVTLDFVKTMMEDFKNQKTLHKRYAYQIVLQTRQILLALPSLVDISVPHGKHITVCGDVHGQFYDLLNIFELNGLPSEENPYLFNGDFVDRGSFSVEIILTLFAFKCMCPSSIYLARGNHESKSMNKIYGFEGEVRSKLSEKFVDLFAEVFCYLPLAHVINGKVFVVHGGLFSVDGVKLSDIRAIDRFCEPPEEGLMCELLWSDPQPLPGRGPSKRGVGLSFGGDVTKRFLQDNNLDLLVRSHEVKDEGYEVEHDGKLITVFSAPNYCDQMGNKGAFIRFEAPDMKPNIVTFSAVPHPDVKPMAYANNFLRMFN
Experimental: In order to examine whether the inventive PAPP5 protein has enzymatic activity, an enzymatic assay was performed using […] ρ-nitrophenyl phosphate (ρNPP) as a substrate. First, the GST-PAPP5 fusion protein purified in Example <4-1> was prewarmed at 30° C. for 1 minute. The prewarmed enzyme solution was added to 100 μl of kinase/phosphatase (KP) buffer (20 mM Tris-HCl pH 7.5, 30 mM MgCl2, 1 mM EDTA, 1 mM EGTA, 0.1% β-mercaptoethanol, 0.1% ethanol) containing O-400 mM ρNPP to initiate a reaction. […] . After reaction at 30° C. for 15 minutes, 900 μl of 0.25N NaOH was added to terminate the reaction. The absorbance at 410 nm was measured. After subtracting the absorbance value of the control reaction solution containing all the components except for the enzyme from that of the reaction solution containing the enzyme, the rate was calculated using a millimolar extinction coefficient (17.8) of ρ-nitrophenolate ions.
In order to confirm if the phosphatase activity of the inventive PAPP5 protein is activated by arachidonic acid, 0-300 μM arachidonic acid was added to a reaction mixture in the presence of 100 mM ρNPP, and the enzymatic activity was measured according to the same method as Example <6-1>.
Thus, the inhibitory effect of okadaic acid on the phosphatase activity of GST-PAPP5 was examined. As a result, the IC50 of okadaic acid, at which the enzyme activity is inhibited by 50%, was 5 nM (data not shown).
(§1) Thus, in order to confirm if PAPP5 also have this property, the present inventors examined the phosphatase activities of GST-PAPP5, GST-TPR and GST-PP2Ac in the same manner as in Example <6-1>. At this time, the concentration of ρNPP was 100 mM.

[4] = system: phytochrome molecules; assay: Pull-down assay with PAPP5 domain fragments; type: binding, Arabidopsis thaliana
Experimental: Thereafter, according to the same method as in Example <4-1>, an in vitro assay was performed on each of the proteins which have been expressed and purified in E. coli.

[5] = system: phytochromes; assay: Quantitative yeast two-hybrid assay (β-galactosidase activity); type: cell-based, Arabidopsis thaliana; details: PHYA or PHYB bait, EGY48 yeast
Experimental: In order to quantitatively assay the interaction between the TPR domain of PAPP5 and phytochromes, each of recombinant vectors (preys) for the TPR domain of PAPP5 and for the PP2A catalytic domain of PAPP5 were prepared, respectively.
A PHYA gene or a PHYB gene was prepared by performing PCR according to the same method as in Example <4-2>, and inserted into a pGilda vector. The recombinant vector was used as a bait. The prepared bait or prey was co-introduced into an EGY48 yeast strain together with a pSH18-34 reporter plasmid. The transformed strain was cultured until the OD600 value reached about 0.7. The cultured cells were washed one time with Z-buffer solution (60 mM Na2HPO4, 40 mM NaH2PO4, 10 mM KCl, 1 mM MgSO4, pH 7.0), and then re-suspended in the solution. Thereafter, the solution was frozen with liquid N2. The frozen solution was dissolved, to which β-mercaptoethanol and ONPG (o-nitrophenyl-β-D-galactopyranoside) were then added at final concentrations of 0.2% and 0.67 mg/ml, respectively. The dissolved solution was allowed to react for 30 minutes at 37° C. Next, Na2CO3 was added to the solution at a final concentration of 0.3 M to terminate the reaction. The absorbance at […] was measured, and the β-galactosidase activity was determined in Miller units (Miller, J. H. Experiments in Molecular Genetics (Cold Spring Harbor Laboratory, Cold Spring harbor, N.Y., 1972)).

[6] = In vitro phosphatase assay: enzymatic activity of PAPP5 and its domain fragments on ρNPP; type: biochemical; details: 100 mM ρNPP; regardless of the addition of arachidonic acid
Experimental: In order to examine whether the inventive PAPP5 protein has enzymatic activity, an enzymatic assay was performed using […] ρ-nitrophenyl phosphate (ρNPP) as a substrate. First, the GST-PAPP5 fusion protein purified in Example <4-1> was prewarmed at 30° C. for 1 minute. The prewarmed enzyme solution was added to 100 μl of kinase/phosphatase (KP) buffer (20 mM Tris-HCl pH 7.5, 30 mM MgCl2, 1 mM EDTA, 1 mM EGTA, 0.1% β-mercaptoethanol, 0.1% ethanol) containing O-400 mM ρNPP to initiate a reaction. To examine the autohydrolysis of ρNPP at each substrate concentration, the GST-PAPP5 enzyme solution was not added to a control group. After reaction at 30° C. for 15 minutes, 900 μl of 0.25N NaOH was added to terminate the reaction. The absorbance at 410 nm was measured. After subtracting the absorbance value of the control reaction solution containing all the components except for the enzyme from that of the reaction solution containing the enzyme, the rate was calculated using a millimolar extinction coefficient (17.8) of ρ-nitrophenolate ions.
as §1

Question: Which dephosphorylation of autophosphorylated phytochrome A (autoradiography after SDS-PAGE) [1] does the source give for GST-PAPP5 fusion protein (enzyme) here?
Answer: The dephosphorylation of autophosphorylated phytochrome A (autoradiography after SDS-PAGE) was 80%.

Question: With “GST-PAPP5: a fusion protein of GST and full-length PAPP5” as the molecule, how does the “dephosphorylation of autophosphorylated oat Pfr phytochrome A” value [2] read?
Answer: The value was “about 80%”.

Question: With `CCCCC/C=C\C/C=C\C/C=C\C/C=C\CCCC(=O)O` [arachidonic acid] as the molecule, how does the “arachidonic acid concentration at which activity of GST-PAPP5 reached the stationary phase” value ([3]; 0-300 μM arachidonic acid, 100 mM ρNPP) read?
Answer: Its value is “above 100 μM”.

Question: What about the “increase of phosphatase activity of GST-PAPP5 by arachidonic acid” value ([3]; 100 mM ρNPP) of the same molecule?
Answer: The value was “about five times increased”.

Question: Which IC50 ([3]; phosphatase activity of GST-PAPP5, data not shown, read-out: IC50 of okadaic acid, at which the enzyme activity is inhibited by 50%) does the source give for `C=C1[C@@H](O)[C@@H]2O[C@]3(CC[C@H](/C=C/[C@@H](C)[C@@H]4CC(C)=C[C@@]5(O[C@H](C[C@@](C)(O)C(=O)O)CC[C@H]5O)O4)O3)CC[C@H]2O[C@@H]1[C@@H](O)C[C@H](C)[C@H]1O[C@@]2(CCCCO2)CC[C@H]1C` [okadaic acid] here?
Answer: The IC50 was 5 nM.

B1: GST-TPR: fusion protein of GST and TPR domain of PAPP5, amino acids 1-138 of SEQ ID NO: 4 (protein)
chain: METKNENSDVSRAEEFKSQANEAFKGHKYSSAIDLYTKAIELNSNNAVYWANRAFAHTKLEEYGSAIQDASKAIEVDSRYSKGYYRRGAAYLAMGKFKDALKDFQQVKRLSPNDPDATRKLKECEKAVMKLKFEEAIS
Question: What does the source list for B1?
Answer: ability to interact with phytochrome molecules (pull-down) [4]: has the ability to interact; level of dephosphorylation of autophosphorylated oat Pfr phytochrome A (in words) [2]: do not affect the phosphorylation status

B2: B42-PP2Ac: TPR domain-deleted PP2A catalytic domain of PAPP5 as yeast two-hybrid prey (protein)
chain: SVPVSERRSVAESIDFHTIEVEPQYSGARIEGEEVTLDFVKTMMEDFKNQKTLHKRYAYQIVLQTRQILLALPSLVDISVPHGKHITVCGDVHGQFYDLLNIFELNGLPSEENPYLFNGDFVDRGSFSVEIILTLFAFKCMCPSSIYLARGNHESKSMNKIYGFEGEVRSKLSEKFVDLFAEVFCYLPLAHVINGKVFVVHGGLFSVDGVKLSDIRAIDRFCEPPEEGLMCELLWSDPQPLPGRGPSKRGVGLSFGGDVTKRFLQDNNLDLLVRSHEVKDEGYEVEHDGKLITVFSAPNYCDQMGNKGAFIRFEAPDMKPNIVTFSAVPHPDVKPMAYANNFLRMFN
Question: With B2 as the molecule, how does the “activity of interaction with phytochromes (β-galactosidase activity)” value [5] read?
Answer: Its value is “remarkable reduction”.

B3: GST-PP2Ac: fusion of GST and PP2A catalytic domain of PAPP5 with a deletion of amino acids 1-138 in SEQ ID NO: 4 (protein)
chain: B2 chain
Question: For B3, which “level of dephosphorylation of autophosphorylated oat Pfr phytochrome A (in words)” value [2] is on record?
Answer: Its value is “very low”.

Question: And the “phosphatase activity relative to GST-PAPP5 with no arachidonic acid” value [6]?
Answer: The value was “five times higher activity”.
